Laboratory results from patent US8067155B2, “Receptor tyrosine kinase assays” (DiscoveRx Corporation, priority 2008, dated 2011).
Each block holds one molecule with its values, some of them ahead of it.

Experiments:
[1] = target: TrkB fused to a low affinity small fragment of β-galactosidase (TrkB-PK) (UniProt Q16620); assay: cell-based or functional assay
insulin receptor (INSR) = target: T1, insulin receptor (INSR) (Homo sapiens, UniProt P06213); assay: PathHunter INSR-PK / SH2-containing protein-EA assay in U2OS cells, agonist mode; type: cell-based; details: U2OS INSR-PK cells, 10,000 cells/well, 3 hours at room temperature
T1 construct: host or cells: U2OS

[2] = target: TrkC fused to a low affinity small fragment of β-galactosidase (TrkC-PK) (UniProt Q16288); assay: cell-based or functional assay
TrkC = target: T2, TrkC (Homo sapiens, UniProt Q16288); assay: PathHunter TrkC-PK / SH2-containing protein-EA assay in U2OS cells, agonist mode; type: cell-based; details: 3 hours at room temperature
T2 construct: host or cells: U2OS
Procedure: FIG. 8 is a graph of the dose response in U2OS cells of TrkC fused to a low affinity small fragment of β-galactosidase (TrkC-PK). Cells were plated in a 384-well plate at 10,000 cells/well, stimulated with NT3 (Peprotech, Cat #/450-03), a known ligand for TrkC, for 3 hours at room temperature according to the assay procedure provided. Following stimulation, detection reagents were added and signal was detected after 1 hour using the PathHunter® Detection Kit (93-0001).
(§1) Generally, the expression constructs for the fusion proteins includes at least (in order of 5′ to 3′) a promoter, followed by the receptor or SH2 domain, followed by a linker, followed by either the EA or PK. […] SH2-EA complex formation with the RTK was detected with 50% (v/v) of PathHunter® Detection Reagent (Dx 93-0001, PathHunter reagents are available from DiscoveRx, Corp., Fremont, Calif.) (Lysis buffer active ingredient 1% CHAPS, Emerald II™ and Galacton Star™ are from Applied Biosystems).
(§2) 10K cells/well TrkC-PK SH2-containing protein-EA double stable cells were plated in a 384-well plate, stimulated with NT3 (Peprotech, Cat #/450-03), a known ligand for TrkC for 3 hours at room temperature according to the assay procedure provided. Following stimulation, detection reagents were added and signal was detected after 1 hour using the PathHunter® Detection Kit (93-0001).

[3] = target: G-CSFR (granulocyte-colony stimulating factor receptor) fused to a low affinity small fragment of … (UniProt Q99062 25-836, tyrosine-phosphorylated on activation (by Jak2); sites not stated); assay: cell-based or functional assay
TrkB = target: T3, TrkB (Homo sapiens, UniProt Q16620); assay: PathHunter TrkB-PK / SH2-containing protein-EA assay in U2OS cells, agonist mode; type: cell-based; details: 3 hours at room temperature
T3 construct: host or cells: U2OS
Procedure: FIG. 7 is a graph of the dose response in U2OS cells of TrkB fused to a low affinity small fragment of β-galactosidase (TrkB-PK). Cells were plated in a 384-well plate at 10,000 cells/well stimulated with BDNF (Peprotech, Cat #/450-02), a known ligand for TrkB, for 3 hours at room temperature according to the assay procedure provided. Following stimulation, detection reagents were added and signal was detected after 1 hour using the PathHunter® Detection Kit (93-0001).
as §1
as §2, with “cells/well TrkB-PK” for “cells/well TrkC-PK”, “stable cell” for “stable cells”, “with BDNF” for “with NT3”, “Cat #/450-02),” for “Cat #/450-03),”, “for TrkB” for “for TrkC”

Sequence of G-CSFR (granulocyte-colony stimulating factor receptor) fused to a low affinity small fragment of … (Q99062 other isoform, or with tags, fused parts or gaps): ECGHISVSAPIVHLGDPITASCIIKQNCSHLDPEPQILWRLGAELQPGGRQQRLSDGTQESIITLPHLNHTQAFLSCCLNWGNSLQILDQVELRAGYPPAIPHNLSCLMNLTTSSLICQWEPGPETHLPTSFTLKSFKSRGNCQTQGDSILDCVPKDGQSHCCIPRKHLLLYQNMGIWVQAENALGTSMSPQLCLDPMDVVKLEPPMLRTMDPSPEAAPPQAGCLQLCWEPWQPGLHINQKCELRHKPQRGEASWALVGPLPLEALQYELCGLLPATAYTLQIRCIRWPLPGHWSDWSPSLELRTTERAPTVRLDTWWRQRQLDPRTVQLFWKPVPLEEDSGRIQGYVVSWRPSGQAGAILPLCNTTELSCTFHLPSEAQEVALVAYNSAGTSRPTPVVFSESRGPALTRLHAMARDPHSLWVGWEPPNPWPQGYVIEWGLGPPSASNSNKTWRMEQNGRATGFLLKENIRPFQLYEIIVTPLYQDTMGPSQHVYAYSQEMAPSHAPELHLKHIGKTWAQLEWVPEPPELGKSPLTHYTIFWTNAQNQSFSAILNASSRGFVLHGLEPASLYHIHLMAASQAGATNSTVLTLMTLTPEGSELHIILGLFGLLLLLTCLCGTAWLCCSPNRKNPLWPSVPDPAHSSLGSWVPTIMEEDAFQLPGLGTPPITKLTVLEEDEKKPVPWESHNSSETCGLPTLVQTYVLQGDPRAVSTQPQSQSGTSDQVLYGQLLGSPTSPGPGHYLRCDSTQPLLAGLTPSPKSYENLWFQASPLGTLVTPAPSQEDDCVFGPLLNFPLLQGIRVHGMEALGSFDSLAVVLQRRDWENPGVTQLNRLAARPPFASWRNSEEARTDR

- EC50 of the BDNF dose response (PathHunter β-galactosidase complementation of TrkB-PK and SH2-containing protein-EA in U2OS cells) [1]: 4.21 ng/mL
- assay window of the BDNF dose response (PathHunter β-galactosidase complementation of TrkB-PK and SH2-containing protein-EA in U2OS cells) [1]: 4 fold
Molecule: BDNF (Peprotech, Cat #/450-02) (from UniProt P23560 129-247) (ligand)

- EC50 of the NT3 dose response (PathHunter β-galactosidase complementation of TrkC-PK and SH2-containing protein-EA in U2OS cells) [2]: 7 ng/mL
- assay window of the NT3 dose response (PathHunter β-galactosidase complementation of TrkC-PK and SH2-containing protein-EA in U2OS cells) [2]: 8.1 fold
Molecule: NT3 (Peprotech, Cat #/450-03) (from UniProt P20783 139-257) (ligand)

The remaining lines, values behind:

Molecule: IGF1: IGF1 (Peprotech, Cat AF-100-11), a known ligand for IGF1R
- EC50 (insulin receptor (INSR)): 2.0 ng/mL

Molecule: NT3: NT3 (Peprotech, Cat 450-03), a known ligand for TrkC
- EC50 (TrkC; U2OS TrkC-PK cells, 10,000 cells/well): 7 ng/mL
- assay window (TrkC; U2OS TrkC-PK cells): 8.1 fold

B1: G-CSF (Peprotech 300-23) (ligand, UniProt P09919-2 31-204, looked up)
chain: TPLGPASSLPQSFLLKCLEQVRKIQGDGAALQEKLCATYKLCHPEELVLLGHSLGIPWAPLSSCPSQALQLAGCLSQLHSGLFLYQGLLQALEGISPELGPTLDTLQLDVADFATTIWQQMEELGMAPALQPTQGAMPAFASAFQRRAGGVLVASHLQSFLEVSYRVLRHLAQP
- EC50 of the G-CSF dose response (PathHunter β-galactosidase complementation of CSF3R-PK and SHC1-EA in U2OS cells, Jak2 construct) [3]: 4 ng/mL
- assay window of the G-CSF dose response (PathHunter β-galactosidase complementation of CSF3R-PK and SHC1-EA in U2OS cells, Jak2 construct) [3]: 7 fold

B2: BDNF: BDNF (Peprotech, Cat 450-02), a known ligand for TrkB (protein, UniProt P23560 19-247, looked up)
Neurotrophic factor BDNF …: APMKEANIRGQGGLAYPGVRTHGTLESVNGPKAGSRGLTSLADTFEHVIEELLDEDQKVRPNEENNKDADLYTSRVMLSSQVPLEPPLLFLLEEYKNYLDAANMSMRVRRHSDPARRGELSVCDSISEWVTAADKKTAVDMSGGTVTVLEKVPVSKGQLKQYFYETKCNPMGYTKEGCRGIDKRHWNSQCRTTQSYVRALTMDSKKRIGWRFIRIDTSCVCTLTIKRGR
- EC50 (TrkB; U2OS TrkB-PK cells, 10,000 cells/well): 4.21 ng/mL
- assay window (TrkB; U2OS TrkB-PK cells): 4.0 fold
